One may read the Kd as a measure of binding affinity in units of concentration. What is called koff is the first-order rate constant of dissociation. Usually kon stands for a measure of how fast the partners come together. What is called EC50 is the concentration at which the effect is half-maximal.

Test [1] addresses T1, soluble cynomolgus GPNMB (recombinant extracellular domain) (cynomolgus, UniProt Q14956 23-499 (human entry), limits assumed).
T1 chain: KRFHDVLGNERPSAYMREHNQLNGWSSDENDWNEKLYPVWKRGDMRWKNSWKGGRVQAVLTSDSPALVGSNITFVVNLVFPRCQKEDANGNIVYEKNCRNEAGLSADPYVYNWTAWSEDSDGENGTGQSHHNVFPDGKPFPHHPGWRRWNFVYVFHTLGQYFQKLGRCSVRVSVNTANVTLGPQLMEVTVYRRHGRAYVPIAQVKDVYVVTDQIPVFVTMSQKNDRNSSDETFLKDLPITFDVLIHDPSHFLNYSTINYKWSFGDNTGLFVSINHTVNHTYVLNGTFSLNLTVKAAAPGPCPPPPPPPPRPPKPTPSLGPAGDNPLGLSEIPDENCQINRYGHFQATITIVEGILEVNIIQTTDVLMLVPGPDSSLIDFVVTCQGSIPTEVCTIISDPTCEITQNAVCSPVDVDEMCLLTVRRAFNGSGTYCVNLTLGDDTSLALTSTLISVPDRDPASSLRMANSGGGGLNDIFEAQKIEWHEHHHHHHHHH
As to the kind of experiment: SPR Biacore, IgG captured. As to the method:
(§1) Binding kinetics of the humanized and affinity matured anti-GPNMB antibodies described above were evaluated using the Biacore T200 (Cytiva). Briefly, IgGs were diluted to 10 μg/mL and captured using a Protein A/G (ThermioFisher, #21186) surface on a CM5 chip that was prepared by amine coupling according to the instrument manufacturer's recommendations. The captured antibodies were tested for their ability to bind human, cynomolgus monkey, and mouse GPNMB recombinant proteins as follows.
(§2) Human, cynomolgus, and mouse GPNMB analytes were diluted in running buffer (HBS-EP+, Teknova, #8022, with 0.5 mg/ml BSA, MP Biomedicals LLC, #820451), to a concentration of 300 nM, then diluted 3-fold serially to 100 nM, 33 nM, and 11 nM. Each sample was injected for 2 minutes to allow association, followed by dissociation in buffer alone for 10 minutes. Each sample injection was followed by the regeneration of the chip with three 30-second injections of 10 mM glycine, pH 1.7. Fresh antibody was captured at the beginning of each cycle.
(§3) Data were analyzed using Biacore evaluation software to generate kinetic constants. The equilibrium dissociation constants (KD) were calculated from the fitted association and dissociation rate constants (k-on and k-off) for each of the anti-GPNMB antibodies.
A general note: Surface plasmon resonance follows binding to a sensor surface in real time, without labels.

Test [2] has as its target T2, soluble human GPNMB (recombinant extracellular domain) (human, UniProt Q14956 23-498).
T2 construct: also called huGPNMB; recombinant human GPNMB extracellular domain; not shown: C-terminal polyhistidine or Avi-His tag
T2 sequence: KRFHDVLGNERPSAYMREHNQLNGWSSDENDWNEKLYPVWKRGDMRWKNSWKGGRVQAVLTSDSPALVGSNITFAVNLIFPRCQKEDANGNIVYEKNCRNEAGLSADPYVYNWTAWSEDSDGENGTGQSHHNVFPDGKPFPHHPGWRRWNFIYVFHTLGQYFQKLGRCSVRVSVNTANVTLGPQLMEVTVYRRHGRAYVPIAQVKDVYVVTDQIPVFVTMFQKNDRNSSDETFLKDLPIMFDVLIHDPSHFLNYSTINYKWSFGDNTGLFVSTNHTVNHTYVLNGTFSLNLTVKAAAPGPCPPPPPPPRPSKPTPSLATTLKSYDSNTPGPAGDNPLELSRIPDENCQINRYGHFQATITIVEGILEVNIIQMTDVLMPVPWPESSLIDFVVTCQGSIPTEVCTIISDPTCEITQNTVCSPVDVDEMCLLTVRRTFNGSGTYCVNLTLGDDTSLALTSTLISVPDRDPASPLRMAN
As to the kind of experiment: SPR Biacore, IgG captured. As to the method: as §1, §2, §3

Test [3] has as its target T3, full-length untagged human GPNMB expressed on cells (human, UniProt Q14956 23-572).
T3 construct: also used here for GPNMB on human monocyte-derived macrophages in the functional assays; also called huGPNMB; Freestyle293-huGPNMB+
T3 sequence: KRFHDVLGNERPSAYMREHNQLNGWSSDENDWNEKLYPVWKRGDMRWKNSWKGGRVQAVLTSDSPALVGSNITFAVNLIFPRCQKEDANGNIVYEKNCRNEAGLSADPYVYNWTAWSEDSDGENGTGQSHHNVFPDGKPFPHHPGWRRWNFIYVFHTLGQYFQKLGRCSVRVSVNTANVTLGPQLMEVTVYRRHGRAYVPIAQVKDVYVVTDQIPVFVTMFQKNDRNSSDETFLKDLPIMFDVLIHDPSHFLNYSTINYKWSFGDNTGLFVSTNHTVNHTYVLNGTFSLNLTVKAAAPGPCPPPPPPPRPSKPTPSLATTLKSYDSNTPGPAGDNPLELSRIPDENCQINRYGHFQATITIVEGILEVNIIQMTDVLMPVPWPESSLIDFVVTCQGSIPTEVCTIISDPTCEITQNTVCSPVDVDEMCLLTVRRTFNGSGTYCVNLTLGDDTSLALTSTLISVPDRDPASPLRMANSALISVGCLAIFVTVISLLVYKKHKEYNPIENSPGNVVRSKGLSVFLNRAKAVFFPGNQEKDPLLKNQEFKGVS
As to the kind of experiment: FACS titration, FS293-huGPNMB+ cells. Here is the method:
Affinity matured anti-GPNMB antibodies of the present disclosure were examined to determine their ability to bind human and mouse GPNMB expressed on FS293-huGPNMB+ or B16F10 cells, respectively. Cell-based affinity measurements were performed to ascertain the apparent affinities of anti-GPNMB antibodies to cell-surface expressed GPNMB. Serial dilutions of anti-GPNMB antibodies of the present disclosure were added to 100,000 FS293-huGPNMB+ or B16F10 cells and allowed to achieve binding equilibrium at 4° C. After addition of fluorescently labeled secondary antibody and brief washing steps, MFI values as a function of titrated antibody concentration were recorded via FACS analysis. Equilibrium binding curves were fit using nonlinear regression analysis with Graphpad Prism 6 software.

B1: anti-GPNMB antibody GPN-83 (antibody, V domains shown)
VH: QVQLQESGPGLVKPSETLSLTCTVSGISITTGNYRWSWIRQPPGKGLEWIGYIDYSGTITYNPSLKSRVTITRDTSKNQFSLELSSVTAADTAVYYCARDLTHWYFDVWGQGTLVTVSS
VL: DIVMTQSPDSLAVSLGERATINCKSSRSVDYYGIGFVNWYQQKPGQPPKLLIYATSIQGSGVPDRFSGSGSGTDFTLTISSLQAEDVAVYYCQQQKEVPPTFGGGTKVEIK
On to B1, for which, in test [1], the Kd was 8.1 nM, the koff stood at 0.0014 s⁻¹ and the kon was determined as 170000 M⁻¹ s⁻¹. In test [2], the Kd is 7.5 nM, the koff amounted to 0.0016 s⁻¹ and the kon was found to be 210000 M⁻¹ s⁻¹. In test [3], this molecule returned an EC50 of 0.203 nM.

B2: anti-GPNMB antibody GPN-89 (antibody, V domains shown)
VH: QVQLQESGPGLVKPSETLSLTCTVSGISITTGNYRWSWIRQPPGKGLEWIGYIDYSGTITYNPSLKSRVTITRDTSKNQFSLELSSVTAADTAVYYCARDLTHWYYDVWGQGTLVTVSS
VL: DIVMTQSPDSLAVSLGERATINCKSSRSVDYYGIGFLNWYQQKPGQPPKLLIYATSHQGSGVPDRFSGSGSGTDFTLTISSLQAEDVAVYYCQQQKEVPPTFGGGTKVEIK
B2: in test [1], the Kd was 3.3 nM, the koff amounted to 0.00055 s⁻¹ and the kon worked out at 170000 M⁻¹ s⁻¹. In test [2], the Kd was 2.9 nM, the koff is 0.00057 s⁻¹ and the kon stood at 200000 M⁻¹ s⁻¹. Also, in test [3], the EC50 was 0.167 nM.

B3: anti-GPNMB antibody GPN-85 (antibody, V domains shown)
VH: QVQLQESGPGLVKPSETLSLTCTVSGISITTGNYRWSWIRQPPGKGLEWIGYIDYSGTITYNPSLKQRVTITRDTSKNQFSLELSSVTAADTAVYYCARDLTHWYFDVWGQGTLVTVSS
VL: DIVMTQSPDSLAVSLGERATINCKSSRSVDYFGIGFLNWYQQKPGQPPKLLIYATSHQGSGVPDRFSGSGSGTDFTLTISSLQAEDVAVYYCQQQKEVPPTFGGGTKVEIK
B3: in test [1], the Kd came to 1.4 nM, the koff turned out to be 0.00021 s⁻¹ and the kon came out at 150000 M⁻¹ s⁻¹. In test [2], the Kd stood at 1 nM, the koff was found to be 0.00018 s⁻¹ and the kon turned out to be 170000 M⁻¹ s⁻¹. Besides, the EC50 in test [3] worked out at 0.385 nM.

B4: anti-GPNMB antibody GPN-84 (antibody, V domains shown)
VH: QVQLQESGPGLVKPSETLSLTCTVSGISITTGNYRWSWIRQPPGKGLEWIGYIDYSGTITYNPSLKSRVTITRDTSKNQFSLELSSVTAADTAVYYCARDLTHWYYDVWGQGTLVTVSS
VL: DIVMTQSPDSLAVSLGERATINCKSSRSVDYYGIGFVNWYQQKPGQPPKLLIYATSIQGSGVPDRFSGSGSGTDFTLTISSLQAEDVAVYYCQQQKEVPPTFGGGTKVEIK
Turning to B4, in test [1], the Kd came out at 10.3 nM, the koff is 0.0019 s⁻¹ and the kon stood at 180000 M⁻¹ s⁻¹. Further, in test [2], the Kd came to 9.6 nM, the koff was determined as 0.0021 s⁻¹ and the kon is 220000 M⁻¹ s⁻¹. In test [3], this molecule came in with an EC50 of 0.241 nM.

B5: anti-GPNMB antibody GPN-87 (antibody, V domains shown)
VH: QVQLQESGPGLVKPSETLSLTCTVSGISITTGNYRWSWIRQPPGKGLEWIGYIDYSGTITYNPSLKSRVTITRDTSKNQFSLELSSVTAADTAVYYCARDLTHWYYDVWGQGTLVTVSS
VL: DIVMTQSPDSLAVSLGERATINCKSSRSVDYYGIGFLNWYQQKPGQPPKLLIYATSKQGSGVPDRFSGSGSGTDFTLTISSLQAEDVAVYYCQQQKEVPPTFGGGTKVEIK
In the case of B5, in test [1], the Kd amounted to 6.2 nM, the koff amounted to 0.0012 s⁻¹ and the kon came to 190000 M⁻¹ s⁻¹. In test [2], the Kd was found to be 5.4 nM, the koff was determined as 0.0013 s⁻¹ and the kon was 250000 M⁻¹ s⁻¹. In addition, it took 0.317 nM to reach a half-maximal effect in test [3] (EC50).

B6: anti-GPNMB antibody GPN-91 (antibody, V domains shown)
VH: QVQLQESGPGLVKPSETLSLTCTVSGISITTGNYRWSWIRQPPGKGLEWIGYIDYSGTITYNPSLKSRVTITRDTSKNQFSLELSSVTAADTAVYYCARDLTHWYFDVWGQGTLVTVSS
VL: DIVMTQSPDSLAVSLGERATINCKSSRSVDYYGIGFLNWYQQKPGQPPKLLIYATSHQGSGVPDRFSGSGSGTDFTLTISSLQAEDVAVYYCQQQKERPPTFGGGTKVEIK
B6: in test [1], the Kd is 3.6 nM, the koff stood at 0.00052 s⁻¹ and the kon was determined as 150000 M⁻¹ s⁻¹. In addition, in test [2], the Kd came out at 3 nM, the koff worked out at 0.00053 s⁻¹ and the kon was 180000 M⁻¹ s⁻¹. The same molecule had an EC50 in test [3] of 0.24 nM.

B7: anti-GPNMB antibody GPN-88 (antibody, V domains shown)
VH: QVQLQESGPGLVKPSETLSLTCTVSGISITTGNYRWSWIRQPPGKGLEWIGYIDYSGTITYNPSLKSRVTITRDTSKNQFSLELSSVTAADTAVYYCARDLTHWYFDVWGQGTLVTVSS
VL: DIVMTQSPDSLAVSLGERATINCKSSRSVDYYGIGFLNWYQQKPGQPPKLLIYATSHQGSGVPDRFSGSGSGTDFTLTISSLQAEDVAVYYCQQQKHVPPTFGGGTKVEIK
Consider B7, for which, in test [1], the Kd stood at 3.7 nM, the koff is 0.00061 s⁻¹ and the on-rate (kon) worked out at 160000 M⁻¹ s⁻¹. For the same molecule, in test [2], the Kd is 3.1 nM, the koff came to 0.00063 s⁻¹ and the kon stood at 200000 M⁻¹ s⁻¹. Further, in test [3], it took 0.192 nM to reach a half-maximal effect (EC50).

B8: anti-GPNMB antibody GPN-90 (antibody, V domains shown)
VH: QVQLQESGPGLVKPSETLSLTCTVSGISITTGNYRWSWIRQPPGKGLEWIGYIDYSGTITYNPSLKQRVTITRDTSKNQFSLELSSVTAADTAVYYCARDLTHWYFDVWGQGTLVTVSS
VL: DIVMTQSPDSLAVSLGERATINCKSSRSVDYYGIGFLNWYQQKPGQPPKLLIYATSHQGSGVPDRFSGSGSGTDFTLTISSLQAEDVAVYYCQQQKEVPPTFGGGTKVEIK
For the molecule B8, in test [1], the Kd was determined as 3.2 nM, the koff is 0.00051 s⁻¹ and the kon amounted to 160000 M⁻¹ s⁻¹. Besides, in test [2], the Kd turned out to be 2.8 nM, the koff is 0.00053 s⁻¹ and the kon amounted to 190000 M⁻¹ s⁻¹. Besides, a half-maximal effect in test [3] (EC50) was put at 0.148 nM.

These data come from patent US20250270343A1 (Alector, published 2025).
